{
  "source": "paper PMC3293909",
  "binders": {"B1": {"name": "clustered soluble recombinant EphB2-Fc (Fc fusion)", "chain": "VEETLMDSTTATAELGWMVHPPSGWEEVSGYDENMNTIRTYQVCNVFESSQNNWLRTKFIRRRGAHRIHVEMKFSVRDCSSIPSVPGSCKETFNLYYYEADFDLATKTFPNWMENPWVKVDTIAADESFSQVDLGGRVMKINTEVRSFGPVSRNGFYLAFQDYGGCMSLIAVRVFYRKCPRIIQNGAIFQETLSGAESTSLVAARGSCIANAEEVDVPIKLYCNGDGEWLVPIGRCMCKAGFEAVENGTVCRGCPSGTFKANQGDEACTHCPINSRTTSEGATNCVCRNGYYRADLDPLDMPCTTIPSAPQAVISSVNETSLMLEWTPPRDSGGREDLVYNIICKSCGSGRGACTRCGDNVQYAPRQLGLTEPRIYISDLLAHTQYTFEIQAVNGVTDQSPFSPQFASVNITTNQAAPSAVSIMHQVSRTVDSITLSWSQPDQPNGVILDYELQYYEKELSEYNATAIKSPTNTVTVQGLKAGAIYVFQVRARTVAGYGRYSGKMYFQTMTEAEYQTSIKEKLPL"}},
  "key": {"[1]": {"target": "T1, ephrin B1 (mouse (endogenous in primary osteoclasts))", "T1 sequence (P52795 whole entry, looked up)": "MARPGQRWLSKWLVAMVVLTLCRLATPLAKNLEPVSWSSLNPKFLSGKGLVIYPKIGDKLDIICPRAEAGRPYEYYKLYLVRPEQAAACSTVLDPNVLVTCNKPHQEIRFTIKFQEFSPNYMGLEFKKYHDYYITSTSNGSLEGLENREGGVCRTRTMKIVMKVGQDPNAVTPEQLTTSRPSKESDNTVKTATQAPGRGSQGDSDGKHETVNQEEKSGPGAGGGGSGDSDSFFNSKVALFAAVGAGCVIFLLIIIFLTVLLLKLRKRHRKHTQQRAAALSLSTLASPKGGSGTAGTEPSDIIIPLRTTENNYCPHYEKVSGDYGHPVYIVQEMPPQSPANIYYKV"}, "[2]": {"target": "T1, ephrin B1 (mouse (endogenous in primary osteoclasts))", "remark": "listed apart in the source"}},
  "data": [
    {"binder": "B1", "values": [
      {"measurement": "inhibition of the area of bone resorption pits formed by WT osteoclast precursors on bone slices by EphB2-Fc against control Fc; no significant effect on ephrin B1 deficient cells", "setting": "[1]", "result": 54, "unit": "%"},
      {"measurement": "suppression of multinucleated cell (MNC) formation from WT splenocyte precursors by EphB2-Fc (2 µg/ml) against control Fc; little effect on ephrin B1 deficient cells", "setting": "[1]", "result": 49.8, "unit": "%"},
      {"measurement": "inhibition of NFATc1 mRNA (real-time RT-PCR) in WT osteoclasts treated with EphB2-Fc against control Fc; not in ephrin B1 deficient cells", "setting": "[2]", "result": 67, "unit": "%"},
      {"measurement": "inhibition of cathepsin K mRNA (real-time RT-PCR) in WT osteoclasts treated with EphB2-Fc against control Fc; not in ephrin B1 deficient cells", "setting": "[2]", "result": 60, "unit": "%"},
      {"measurement": "reduction of TRAP mRNA (real-time RT-PCR) in differentiated WT osteoclasts treated with soluble EphB2-Fc for 4 days against control Fc", "setting": "[2]", "result": 62, "unit": "%"}
    ]}
  ]
}
